Laboratory results taken from article PMC8933513 (2022).
Several values for one entry are separate records, joined by “and”; a condition that tells them apart may be missing. Equal entries are not always repeated.

What was measured:
[1] = molecular target: porcine aminopeptidase N ectodomain, wild type (pig) (UniProt P15145); test: SPR; BIAcore X-100, room temperature; hAPN/pAPN WT or mutant immobilised on CM5 chips via amine coupling; serially diluted PDCoV RBD WT or mutant flowed over in HEPES buffer (0.01 M HEPES, 0.15 M NaCl, 0.5% surfactant P20, 3 mM EDTA, pH 7.4); steady-state affinity model; each of two experiments listed
Sequence of porcine aminopeptidase N ectodomain, wild type (pig) (P15145 58-961): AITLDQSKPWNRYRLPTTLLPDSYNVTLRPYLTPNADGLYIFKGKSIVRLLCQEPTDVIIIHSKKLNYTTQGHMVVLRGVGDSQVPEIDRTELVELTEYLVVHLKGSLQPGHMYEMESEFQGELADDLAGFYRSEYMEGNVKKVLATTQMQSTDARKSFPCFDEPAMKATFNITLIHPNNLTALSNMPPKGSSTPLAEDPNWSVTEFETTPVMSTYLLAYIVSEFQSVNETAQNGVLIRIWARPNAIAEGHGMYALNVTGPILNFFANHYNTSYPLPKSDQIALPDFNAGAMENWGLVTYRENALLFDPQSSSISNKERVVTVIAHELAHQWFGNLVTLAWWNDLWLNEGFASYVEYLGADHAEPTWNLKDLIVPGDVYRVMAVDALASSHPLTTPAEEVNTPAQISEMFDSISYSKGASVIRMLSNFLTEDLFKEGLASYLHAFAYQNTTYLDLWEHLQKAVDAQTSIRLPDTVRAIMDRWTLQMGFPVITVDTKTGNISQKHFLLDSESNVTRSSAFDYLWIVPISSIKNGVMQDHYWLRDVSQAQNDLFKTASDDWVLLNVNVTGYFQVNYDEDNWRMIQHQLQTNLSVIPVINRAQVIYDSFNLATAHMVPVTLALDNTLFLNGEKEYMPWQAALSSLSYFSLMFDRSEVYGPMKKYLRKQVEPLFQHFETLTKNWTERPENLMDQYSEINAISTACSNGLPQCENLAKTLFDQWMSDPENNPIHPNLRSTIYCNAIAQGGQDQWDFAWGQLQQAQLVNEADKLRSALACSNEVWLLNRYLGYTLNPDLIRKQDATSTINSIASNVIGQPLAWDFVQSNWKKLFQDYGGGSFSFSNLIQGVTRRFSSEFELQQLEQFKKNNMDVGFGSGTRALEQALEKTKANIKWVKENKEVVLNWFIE

[2] = molecular target: human aminopeptidase N ectodomain, wild type (human) (UniProt P15144); test: as above
Sequence of human aminopeptidase N ectodomain, wild type (human) (P15144 62-963): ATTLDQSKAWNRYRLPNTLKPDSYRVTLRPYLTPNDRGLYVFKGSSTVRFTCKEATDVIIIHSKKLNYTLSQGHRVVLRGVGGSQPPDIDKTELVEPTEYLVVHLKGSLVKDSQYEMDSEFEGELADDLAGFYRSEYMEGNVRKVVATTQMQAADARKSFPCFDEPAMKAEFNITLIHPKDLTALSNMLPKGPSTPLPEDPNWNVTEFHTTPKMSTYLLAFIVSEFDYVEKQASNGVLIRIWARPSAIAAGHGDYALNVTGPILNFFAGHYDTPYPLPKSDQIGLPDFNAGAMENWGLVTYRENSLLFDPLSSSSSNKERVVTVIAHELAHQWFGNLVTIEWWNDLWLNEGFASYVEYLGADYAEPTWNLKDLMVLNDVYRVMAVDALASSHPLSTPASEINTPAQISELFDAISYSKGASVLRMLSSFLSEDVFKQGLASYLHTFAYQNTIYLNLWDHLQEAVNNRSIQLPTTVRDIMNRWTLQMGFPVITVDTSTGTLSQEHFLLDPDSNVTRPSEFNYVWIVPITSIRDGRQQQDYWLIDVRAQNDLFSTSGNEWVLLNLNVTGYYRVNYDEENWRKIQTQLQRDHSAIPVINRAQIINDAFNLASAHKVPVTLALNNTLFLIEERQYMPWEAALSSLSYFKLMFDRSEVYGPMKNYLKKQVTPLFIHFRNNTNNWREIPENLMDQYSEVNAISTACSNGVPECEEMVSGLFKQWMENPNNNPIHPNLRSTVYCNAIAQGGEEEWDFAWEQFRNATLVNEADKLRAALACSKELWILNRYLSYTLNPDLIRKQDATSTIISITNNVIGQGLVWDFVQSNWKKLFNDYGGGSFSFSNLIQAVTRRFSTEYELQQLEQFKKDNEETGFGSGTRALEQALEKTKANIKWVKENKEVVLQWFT

[3] = molecular target: hAPN ectodomain E742A mutant (human) (UniProt P15144); test: SPR; BIAcore X-100, room temperature; hAPN/pAPN WT or mutant immobilised on CM5 chips by amine coupling; serially diluted PDCoV RBD WT or mutant flowed over in HEPES buffer (0.01 M HEPES, 0.15 M NaCl, 0.5% surfactant P20, 3 mM EDTA, pH 7.4); steady-state affinity model
Sequence of hAPN ectodomain E742A mutant (human) (P15144 62-963 E742A): as the sequence (P15144 62-963) above, with E681A counted along it

[4] = molecular target: porcine aminopeptidase N (pAPN) ectodomain, residues 58-961, wild type (pig) (UniProt P15145); test: as above
Sequence of porcine aminopeptidase N (pAPN) ectodomain, residues 58-961, wild type (pig) (P15145 58-961): as the sequence (P15145 58-961) above

[5] = molecular target: human aminopeptidase N (hAPN) ectodomain, residues 62-963, wild type (UniProt P15144); test: as above
Sequence of human aminopeptidase N (hAPN) ectodomain, residues 62-963, wild type (P15144 62-963): as the sequence (P15144 62-963) above

[6] = molecular target: hAPN ectodomain K379A mutant (human) (UniProt P15144); test: as above
Sequence of hAPN ectodomain K379A mutant (human) (P15144 62-963 K379A): as the sequence (P15144 62-963) above, with K318A counted along it

[7] = molecular target: hAPN ectodomain Y316A mutant (human) (UniProt P15144); test: as above
Sequence of hAPN ectodomain Y316A mutant (human) (P15144 62-963 Y316A): as the sequence (P15144 62-963) above, with Y255A counted along it

[8] = molecular target: human aminopeptidase N (hAPN) ectodomain, residues 62-963, wild type (UniProt P15144); test: SPR; conditions: parent: 3.71 ± 0.05 µM
[9] = molecular target: porcine aminopeptidase N (pAPN) ectodomain, residues 58-961, wild type (UniProt P15145); test: SPR; conditions: parent: 44.24 ± 2.21 µM
Sequence of porcine aminopeptidase N (pAPN) ectodomain, residues 58-961, wild type (P15145 58-961): as the sequence (P15145 58-961) above

[10] = molecular target: porcine aminopeptidase N ectodomain, wild type (pig) (UniProt P15145); test: SPR; hAPN/pAPN WT or mutant immobilised on CM5 chips by amine coupling; serially diluted PDCoV RBD WT or mutant flowed over; BIAcore X-100, room temperature; 0.01 M HEPES, 0.15 M NaCl, 0.5% surfactant P20, 3 mM EDTA, pH 7.4; steady-state affinity model
[11] = molecular target: human aminopeptidase N ectodomain, wild type (human) (UniProt P15144); test: as above
[12] = molecular target: porcine aminopeptidase N ectodomain, wild type (pig) (UniProt P15145); test: as above; remark: listed apart in the source
[13] = molecular target: human aminopeptidase N ectodomain, wild type (human) (UniProt P15144); test: as above; remark: listed apart in the source
[14] = molecular target: human aminopeptidase N ectodomain E742A (human) (UniProt P15144); test: as above
Sequence of human aminopeptidase N ectodomain E742A (human) (P15144 62-963 E742A): as the sequence (P15144 62-963) above, with E681A counted along it

[15] = molecular target: human aminopeptidase N ectodomain E426A (human) (UniProt P15144); test: as above
Sequence of human aminopeptidase N ectodomain E426A (human) (P15144 62-963 E426A): as the sequence (P15144 62-963) above, with E365A counted along it

[16] = molecular target: human aminopeptidase N ectodomain Y316A (human) (UniProt P15144); test: as above
Sequence of human aminopeptidase N ectodomain Y316A (human) (P15144 62-963 Y316A): as the sequence (P15144 62-963) above, with Y255A counted along it

[17] = molecular target: porcine aminopeptidase N ectodomain E421A (pig) (UniProt P15145); test: as above
Sequence of porcine aminopeptidase N ectodomain E421A (pig) (P15145 58-961 E421A): as the sequence (P15145 58-961) above, with E364A counted along it

[18] = molecular target: human aminopeptidase N ectodomain K379A (human) (UniProt P15144); test: as above
Sequence of human aminopeptidase N ectodomain K379A (human) (P15144 62-963 K379A): as the sequence (P15144 62-963) above, with K318A counted along it

[19] = molecular target: human aminopeptidase N ectodomain W429A (human) (UniProt P15144); test: as above
Sequence of human aminopeptidase N ectodomain W429A (human) (P15144 62-963 W429A): as the sequence (P15144 62-963) above, with W368A counted along it

[20] = molecular target: porcine aminopeptidase N ectodomain W424A (pig) (UniProt P15145); test: as above
Sequence of porcine aminopeptidase N ectodomain W424A (pig) (P15145 58-961 W424A): as the sequence (P15145 58-961) above, with W367A counted along it

[21] = molecular target: human aminopeptidase N ectodomain E745A (human) (UniProt P15144); test: as above
Sequence of human aminopeptidase N ectodomain E745A (human) (P15144 62-963 E745A): as the sequence (P15144 62-963) above, with E684A counted along it

[22] = molecular target: human aminopeptidase N ectodomain H789A (human) (UniProt P15144); test: as above
Sequence of human aminopeptidase N ectodomain H789A (human) (P15144 62-963 H789A): as the sequence (P15144 62-963) above, with H728A counted along it

PDCoV RBD E320A (domain or fragment)
Kd [1]: 279 µM and 220 µM
Kd [2]: 135 µM and 188 µM

PDCoV RBD F318A (domain or fragment)
Kd [1]: 817 µM and 511 µM
Kd [2]: 112 µM and 154 µM

PDCoV RBD N397A (domain or fragment)
Kd [1]: 34 µM and 53.8 µM
Kd [2]: 3.35 µM and 3.62 µM

PDCoV RBD R322A (domain or fragment)
Kd [1]: 454 µM and 553 µM
Kd [2]: 256 µM and 335 µM

PDCoV RBD R357A (domain or fragment)
Kd [1]: 27.7 µM and 60.5 µM
Kd [2]: 199 µM and 232 µM

PDCoV RBD W396A (domain or fragment)
Kd [2]: 88000 µM

PDCoV RBD Y398A (domain or fragment)
Kd [2]: 309 µM and 730 µM

PDCoV spike (S) protein receptor binding domain (RBD), residues 300-419, wild type (domain or fragment)
fold decrease in affinity against wild-type hAPN [3]: 4 fold
fold lower affinity than to hAPN [4]: 10 fold
Kd [5]: 1 µM
Kd [6]: 100 µM
fold decrease in affinity against wild-type hAPN [7]: 10 fold

PDCoV spike (S) protein receptor binding domain (RBD), residues 300-419, wild type E320A
Kd [8]: 161 µM
Kd [9]: 249 µM

PDCoV spike (S) protein receptor binding domain (RBD), residues 300-419, wild type F318A
Kd [8]: 133 µM
Kd [9]: 664 µM

PDCoV spike (S) protein receptor binding domain (RBD), residues 300-419, wild type N397A
Kd [8]: 3.49 µM

PDCoV spike (S) protein receptor binding domain (RBD), residues 300-419, wild type R322A
Kd [8]: 295 µM
Kd [9]: 504 µM

PDCoV spike (S) protein receptor binding domain (RBD), residues 300-419, wild type R357A
Kd [8]: 216 µM

PDCoV spike (S) protein receptor binding domain (RBD), residues 300-419, wild type Y398A
Kd [8]: 520 µM

PDCoV spike protein receptor binding domain E320A (domain or fragment)
Kd [10]: 279 µM and 220 µM
Kd [11]: 135 µM and 188 µM

PDCoV spike protein receptor binding domain F318A (domain or fragment)
Kd [10]: 817 µM and 511 µM
Kd [11]: 112 µM and 154 µM

PDCoV spike protein receptor binding domain N397A (domain or fragment)
Kd [10]: 34 µM and 53.8 µM
Kd [11]: 3.35 µM and 3.62 µM

PDCoV spike protein receptor binding domain R322A (domain or fragment)
Kd [10]: 454 µM and 553 µM
Kd [11]: 256 µM and 335 µM

PDCoV spike protein receptor binding domain R357A (domain or fragment)
Kd [10]: 27.7 µM and 60.5 µM
Kd [11]: 199 µM and 232 µM

PDCoV spike protein receptor binding domain W396A (domain or fragment)
Kd [11]: 88000 µM
Kd [12]: > 1000 µM
Kd [13]: > 1000 µM

PDCoV spike protein receptor binding domain Y398A (domain or fragment)
Kd [11]: 309 µM and 730 µM
Kd [12]: > 1000 µM

PDCoV spike protein receptor binding domain, wild type (domain or fragment)
Kd [10]: 42 µM and 46.5 µM
Kd [11]: 3.76 µM and 3.66 µM
Kd [14]: 14.3 µM and 13.2 µM
Kd [15]: 305 µM and 362 µM
Kd [16]: 35.7 µM and 38.5 µM
Kd [17]: 103 µM and 146 µM
Kd [18]: 371 µM and 516 µM
Kd [19]: 158 µM and 97 µM
Kd [20]: 113 µM and 119 µM
Kd [21]: 3.13 µM and 3 µM
Kd [22]: 6.47 µM and 6.03 µM
